The results in this text go back to patent US8158376B2, “Bisubstrate fluorescent probe binding to protein kinases” (University of Tartu, priority 2006, dated 2012).

Test in all cases: Kinase selectivity panel
Holding throughout (format): biochemical

The target in one data set is GSK3b (Homo sapiens, UniProt P49841). The note with it: read-out: residual activity (%) GSK3b. The procedure: (§1) The panel of kinases included all 52 kinases available for testing.
(§2) The assay of protein kinases was performed at 30° C. as described previously [Davies et al., Biochem. J. 351 (2000) 95; Murray et al., Biochem. J. 384 (2004) 477].

Another data set addresses P70 S6K (Homo sapiens, UniProt P23443). The note with it: ATP 20 μM. The procedure:
as §1, §2

In another data set the target is DYRK1a (Homo sapiens, UniProt Q13627). Conditions: read-out: residual activity (%) DYRK1a. The procedure: as §1, §2
In the next data set the target is T1, SGK (Homo sapiens, UniProt O00141).
T1 sequence (O00141 1-431): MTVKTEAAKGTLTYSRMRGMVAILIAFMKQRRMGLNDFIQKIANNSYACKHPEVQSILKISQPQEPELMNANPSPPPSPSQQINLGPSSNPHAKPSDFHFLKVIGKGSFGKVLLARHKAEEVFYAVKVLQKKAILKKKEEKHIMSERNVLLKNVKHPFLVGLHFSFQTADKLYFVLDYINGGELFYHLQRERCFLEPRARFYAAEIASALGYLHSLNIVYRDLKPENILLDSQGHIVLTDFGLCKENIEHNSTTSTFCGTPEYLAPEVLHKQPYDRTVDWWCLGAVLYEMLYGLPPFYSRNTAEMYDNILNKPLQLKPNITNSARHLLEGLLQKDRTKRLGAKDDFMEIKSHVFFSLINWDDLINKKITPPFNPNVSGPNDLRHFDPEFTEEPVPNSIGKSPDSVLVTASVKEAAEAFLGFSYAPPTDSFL
The note with it: read-out: residual activity (%) SGK. The procedure:
as §1, §2

In another data set the target is T2, PKD1 (Homo sapiens, UniProt Q15139).
T2 sequence (Q15139 1-912): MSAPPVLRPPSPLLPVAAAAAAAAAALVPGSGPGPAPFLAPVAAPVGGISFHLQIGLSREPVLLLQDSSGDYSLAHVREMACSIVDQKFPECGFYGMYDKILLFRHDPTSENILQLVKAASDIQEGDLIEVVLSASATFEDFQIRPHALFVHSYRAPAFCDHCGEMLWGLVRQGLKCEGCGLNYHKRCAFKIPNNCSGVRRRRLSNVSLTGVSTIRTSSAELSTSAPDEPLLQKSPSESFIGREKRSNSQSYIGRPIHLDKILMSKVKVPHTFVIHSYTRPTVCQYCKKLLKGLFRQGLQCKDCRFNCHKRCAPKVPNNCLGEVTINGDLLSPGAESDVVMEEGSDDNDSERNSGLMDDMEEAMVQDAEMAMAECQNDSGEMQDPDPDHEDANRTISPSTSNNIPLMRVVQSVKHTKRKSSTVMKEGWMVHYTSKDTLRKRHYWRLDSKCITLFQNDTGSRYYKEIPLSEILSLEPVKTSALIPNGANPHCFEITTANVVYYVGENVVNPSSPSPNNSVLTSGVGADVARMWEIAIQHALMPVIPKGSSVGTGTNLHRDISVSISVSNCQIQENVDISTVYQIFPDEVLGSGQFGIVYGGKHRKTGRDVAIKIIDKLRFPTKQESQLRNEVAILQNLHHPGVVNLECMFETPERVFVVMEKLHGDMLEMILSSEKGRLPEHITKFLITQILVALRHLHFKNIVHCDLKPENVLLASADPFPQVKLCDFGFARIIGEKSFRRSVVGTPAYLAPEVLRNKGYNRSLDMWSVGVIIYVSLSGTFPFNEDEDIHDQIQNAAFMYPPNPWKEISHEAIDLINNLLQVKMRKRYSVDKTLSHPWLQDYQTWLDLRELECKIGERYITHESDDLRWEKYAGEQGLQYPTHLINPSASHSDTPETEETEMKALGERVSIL
Conditions: for remaining activity at 1 µM: read-out: residual activity (%) PKD1. The procedure:
as §1, §2

For the next data set, the target named is CK2 (Homo sapiens, UniProt P68400). Conditions: read-out: residual activity (%) CK2. The procedure:
as §1, §2

Another data set concerns the target MNK1 (Homo sapiens, UniProt Q9BUB5). The note with it: read-out: residual activity (%) MNK1. The procedure: as §1, §2
The next data set concerns the target CAMK-1 (Homo sapiens, UniProt Q14012). Conditions: read-out: residual activity (%) CAMK-1. The procedure:
as §1, §2

The target of a further data set is CSK (Homo sapiens, UniProt P41240). Conditions: read-out: residual activity (%) CSK. The procedure:
as §1, §2

A further data set deals with T3, IKKb (Homo sapiens, UniProt O14920).
T3 sequence (O14920 1-756): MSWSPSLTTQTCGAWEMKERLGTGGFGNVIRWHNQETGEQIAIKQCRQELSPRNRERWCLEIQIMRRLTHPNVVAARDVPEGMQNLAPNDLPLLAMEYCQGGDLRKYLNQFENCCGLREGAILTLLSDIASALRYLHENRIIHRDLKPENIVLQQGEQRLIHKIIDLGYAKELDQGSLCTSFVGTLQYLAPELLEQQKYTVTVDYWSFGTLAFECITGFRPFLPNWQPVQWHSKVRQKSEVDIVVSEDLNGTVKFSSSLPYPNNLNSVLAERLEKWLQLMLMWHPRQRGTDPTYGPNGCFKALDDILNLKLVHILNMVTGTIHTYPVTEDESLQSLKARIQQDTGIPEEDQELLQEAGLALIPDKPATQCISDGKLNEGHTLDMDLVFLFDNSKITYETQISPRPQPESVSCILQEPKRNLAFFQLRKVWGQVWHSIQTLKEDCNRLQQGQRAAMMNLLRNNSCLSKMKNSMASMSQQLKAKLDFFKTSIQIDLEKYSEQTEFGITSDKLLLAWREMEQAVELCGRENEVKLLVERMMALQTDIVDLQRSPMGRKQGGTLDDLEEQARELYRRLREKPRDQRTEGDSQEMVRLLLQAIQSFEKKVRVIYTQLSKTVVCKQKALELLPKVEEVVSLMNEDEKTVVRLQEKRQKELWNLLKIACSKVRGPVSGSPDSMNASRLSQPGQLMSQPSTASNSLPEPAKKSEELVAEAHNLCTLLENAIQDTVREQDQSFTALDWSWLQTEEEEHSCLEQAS
The note with it: read-out: residual activity (%) IKKb. The procedure:
as §1, §2

Molecules are shown by their SMILES. Read-outs that look alike come from different tables or passages of the source.

Chain of P70 S6K (P23443 whole entry): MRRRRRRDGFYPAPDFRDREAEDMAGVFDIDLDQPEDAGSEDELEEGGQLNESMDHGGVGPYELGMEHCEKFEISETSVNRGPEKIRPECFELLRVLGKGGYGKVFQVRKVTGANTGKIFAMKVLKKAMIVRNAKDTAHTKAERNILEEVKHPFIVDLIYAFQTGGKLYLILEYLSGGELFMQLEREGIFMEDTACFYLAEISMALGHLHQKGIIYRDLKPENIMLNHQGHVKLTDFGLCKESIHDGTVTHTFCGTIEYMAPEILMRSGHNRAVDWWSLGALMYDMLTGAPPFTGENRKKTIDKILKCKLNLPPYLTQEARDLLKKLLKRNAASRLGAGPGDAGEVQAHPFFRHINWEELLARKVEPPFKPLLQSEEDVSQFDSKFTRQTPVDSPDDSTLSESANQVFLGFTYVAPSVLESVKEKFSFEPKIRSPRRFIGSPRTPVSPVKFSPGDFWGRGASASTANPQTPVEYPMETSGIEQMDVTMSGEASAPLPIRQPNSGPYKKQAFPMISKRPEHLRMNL
Chain of MNK1 (Q9BUB5 whole entry, species assumed): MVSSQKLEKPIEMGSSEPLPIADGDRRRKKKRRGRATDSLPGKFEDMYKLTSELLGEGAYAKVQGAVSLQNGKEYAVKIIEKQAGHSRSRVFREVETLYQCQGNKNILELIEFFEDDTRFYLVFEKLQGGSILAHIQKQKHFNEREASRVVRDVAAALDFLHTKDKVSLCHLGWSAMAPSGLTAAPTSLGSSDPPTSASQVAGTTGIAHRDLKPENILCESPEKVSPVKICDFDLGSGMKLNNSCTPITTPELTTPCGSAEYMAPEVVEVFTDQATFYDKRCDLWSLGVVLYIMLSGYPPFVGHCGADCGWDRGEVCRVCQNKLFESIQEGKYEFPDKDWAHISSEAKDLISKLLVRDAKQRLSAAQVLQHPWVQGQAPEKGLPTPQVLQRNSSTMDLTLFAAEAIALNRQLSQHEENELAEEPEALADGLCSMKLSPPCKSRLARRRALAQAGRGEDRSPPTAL
Chain of GSK3b (P49841 whole entry, species assumed): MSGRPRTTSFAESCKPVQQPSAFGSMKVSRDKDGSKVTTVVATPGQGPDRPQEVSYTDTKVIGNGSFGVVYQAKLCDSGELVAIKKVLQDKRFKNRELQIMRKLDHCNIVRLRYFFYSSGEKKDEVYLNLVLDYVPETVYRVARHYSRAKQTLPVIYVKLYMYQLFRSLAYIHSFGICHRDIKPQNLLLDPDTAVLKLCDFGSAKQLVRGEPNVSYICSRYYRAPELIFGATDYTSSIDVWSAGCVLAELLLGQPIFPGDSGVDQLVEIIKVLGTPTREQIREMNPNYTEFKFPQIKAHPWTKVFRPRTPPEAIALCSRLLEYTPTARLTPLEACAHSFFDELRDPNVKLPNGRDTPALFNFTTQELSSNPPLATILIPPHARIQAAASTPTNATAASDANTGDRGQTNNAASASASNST
Chain of CSK (P41240 whole entry, species assumed): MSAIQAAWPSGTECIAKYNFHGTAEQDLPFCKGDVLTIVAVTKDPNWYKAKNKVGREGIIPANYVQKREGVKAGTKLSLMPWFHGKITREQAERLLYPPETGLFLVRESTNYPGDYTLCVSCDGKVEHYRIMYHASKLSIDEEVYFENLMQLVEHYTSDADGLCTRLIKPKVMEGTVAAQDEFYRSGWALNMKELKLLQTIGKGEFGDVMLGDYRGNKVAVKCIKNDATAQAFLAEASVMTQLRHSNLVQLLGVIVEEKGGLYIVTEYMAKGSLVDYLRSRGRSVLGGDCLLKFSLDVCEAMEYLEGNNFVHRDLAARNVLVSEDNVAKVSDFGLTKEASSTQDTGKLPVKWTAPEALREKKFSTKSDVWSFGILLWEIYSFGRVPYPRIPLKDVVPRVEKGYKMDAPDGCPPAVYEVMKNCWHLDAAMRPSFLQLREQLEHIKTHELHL
Chain of CK2 (P68400 whole entry): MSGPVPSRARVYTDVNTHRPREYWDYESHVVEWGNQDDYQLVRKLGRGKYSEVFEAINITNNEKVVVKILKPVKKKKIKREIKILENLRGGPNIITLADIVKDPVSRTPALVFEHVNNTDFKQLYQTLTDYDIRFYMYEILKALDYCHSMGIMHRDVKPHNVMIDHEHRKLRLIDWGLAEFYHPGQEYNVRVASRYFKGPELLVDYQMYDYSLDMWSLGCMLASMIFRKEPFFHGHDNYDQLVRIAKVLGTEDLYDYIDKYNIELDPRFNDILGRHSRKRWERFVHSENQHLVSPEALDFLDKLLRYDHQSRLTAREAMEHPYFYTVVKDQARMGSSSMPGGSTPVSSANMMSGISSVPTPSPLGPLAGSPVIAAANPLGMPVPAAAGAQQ

For the compound `N=C(N)NCCC[C@@H](NC(=O)[C@@H](CCCNC(=N)N)NC(=O)[C@@H](CCCNC(=N)N)NC(=O)[C@@H](CCCNC(=N)N)NC(=O)[C@@H](CCCNC(=N)N)NC(=O)[C@@H](CCCNC(=N)N)NC(=O)CCCCCNC(=O)[C@H]1O[C@@H](n2cnc3c(N)ncnc32)[C@H](O)[C@@H]1O)C(N)=O` [Compound 5, AdcAhx(D-Arg)6-NH2], the remaining activity at 1 µM with GSK3b is 56%; with P70 S6K (read-out: residual activity (%) P70 S6K, inhibitor 1 μM), 7 to 28%; with DYRK1a, 72%; with SGK, 16%; with PKD1, 54%; in the data set with CK2, 104%. The remaining activity at 1 µM in the data set with MNK1 was determined as 102%; with CAMK-1, 15%; with CSK it was 48%; in the data set with IKKb, 94%. In the data set with P70 S6K (inhibitor 1 μM), the “residual activity (%) P70 S6K” value was 7 (±2) %.

`N=C(N)NCCC[C@@H](NC(=O)[C@@H](CCCNC(=N)N)NC(=O)[C@@H](CCCNC(=N)N)NC(=O)[C@@H](CCCNC(=N)N)NC(=O)[C@@H](CCCNC(=N)N)NC(=O)[C@@H](CCCNC(=N)N)NC(=O)CCCCCNCCNS(=O)(=O)c1cccc2cnccc12)C(N)=O` [Compound 26, H9-Hex(D-Arg)6-NH2]: the remaining activity at 1 µM with GSK3b (inhibitor 1 μM, ATP 5 μM) is 94%; in the data set with P70 S6K (inhibitor 1 μM, read-out: residual activity (%) P70 S6K) it was 2%; with DYRK1a (inhibitor 1 μM, ATP 50 μM), 69%; with SGK (inhibitor 1 μM, ATP 20 μM) it was 1%; with PKD1 (inhibitor 1 μM, ATP 50 μM) it was < 10%; in the data set with CK2 (inhibitor 1 μM, ATP 5 μM), 87%. In addition, the remaining activity at 1 µM was 68% in the data set with MNK1 (inhibitor 1 μM, ATP 50 μM); < 10% with CAMK-1 (inhibitor 1 μM, ATP 50 μM); 70% with CSK (inhibitor 1 μM, ATP 20 μM); 87% with IKKb (inhibitor 1 μM, ATP 5 μM). Also, the “residual activity (%) PKD1” value with PKD1 (inhibitor 1 μM, ATP 50 μM) is reported as 9 (±1) %.
